* marks the point of attachment. Biotin = O=C1N[C@H]2[C@H](CS[C@H]2CCCCC(=O)*)N1
How the values were obtained:
[1] = biological target: T1, human myostatin pro-peptide dimer (human, UniProt O14793 25-266, limits assumed); assay: ELISA, antigen coated at 100 ng/well
T1 sequence: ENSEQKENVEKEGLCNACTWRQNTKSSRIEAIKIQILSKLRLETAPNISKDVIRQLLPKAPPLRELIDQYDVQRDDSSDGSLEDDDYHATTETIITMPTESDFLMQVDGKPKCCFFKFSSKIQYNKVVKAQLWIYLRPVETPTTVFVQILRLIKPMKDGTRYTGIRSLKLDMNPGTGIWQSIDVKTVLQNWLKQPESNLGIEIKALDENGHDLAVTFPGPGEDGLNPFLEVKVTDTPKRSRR
Protocol: The myostatin antigens were coated onto wells of an EIA/RIA plate (Costar) at 100 ng/well at 4° C. overnight in PBS, prior to blocking (PBS, 3% BSA) for 30 minutes at room temperature. Plates were washed (PBS, 1% BSA and 0.1% Tween20), prior to the addition of a dilution series of 10B3 in wash buffer and incubation for 2 hours at room temperature. Plates were again washed prior to addition of peroxidase-conjugated Affinipure F(ab′)2 fragment donkey anti-mouse IgG (Jackson Laboratories cat 715-036-151) diluted 1:10,000 in wash buffer and incubated for 1 hour at room temperature. A final wash step preceded addition of TMB substrate and colorimetric change which was stopped with Sulphuric acid and plates read at 450 nm.

[2] = biological target: T2, myostatin artificial peptide No 7 (SGSGSRCCRYPLTVDFEA) (cysteine pairing not given here); assay: SRU BIND biosensor, peptides captured on streptavidin plate
T2 construct: also called Peptide 7
T2 peptide: Biotin-SGSGSRCCRYPLTVDFEA-NH2
Protocol: (§1) Work was carried out on an SRU BIND reader (SRU Biosystems). A streptavidin biosensor plate was washed, a baseline reading taken, and biotinylated peptides captured onto the streptavidin coated biosensor plate. The plate was washed again, and a new baseline reading taken, antibody was then added and binding monitored.

[3] = biological target: T3, myostatin artificial peptide No 21 (SGSGNYCSGECEFVFLQK) (cysteine pairing not given here); assay: as above
T3 construct: also called Peptide 21
T3 peptide: Biotin-SGSGNYCSGECEFVFLQK-NH2
Protocol: as §1

[4] = biological target: T4, myostatin artificial peptide No 47 (SGSGIIYGKIPAMVVDRC) (HELM PEPTIDE1{[O=C1N[C@H]2[C@H](CS[C@H]2CCCCC(=O)[*:2])N1].S.G.S.G.I.I.Y.G.K.I.P.A.M.V.V.D.R.C.[am]}$$$$V2.0; SMILES …); assay: as above
T4 construct: also called Peptide 47
T4 peptide: SGSGIIYGKIPAMVVDRC
Protocol: as §1

[5] = biological target: T5, myostatin artificial peptide No 27 (SGSGQKYPHTHLVHQANP) (HELM PEPTIDE1{[O=C1N[C@H]2[C@H](CS[C@H]2CCCCC(=O)[*:2])N1].S.G.S.G.Q.K.Y.P.H.T.H.L.V.H.Q.A.N.P.[am]}$$$$V2.0; SMILES …); assay: as above
T5 construct: also called Peptide 27
T5 peptide: SGSGQKYPHTHLVHQANP
Protocol: as §1

[6] = biological target: T6, myostatin artificial peptide No 11 (SGSGTVDFEAFGWDWIIA) (HELM PEPTIDE1{[O=C1N[C@H]2[C@H](CS[C@H]2CCCCC(=O)[*:2])N1].S.G.S.G.T.V.D.F.E.A.F.G.W.D.W.I.I.A.[am]}$$$$V2.0; SMILES …); assay: as above
T6 construct: also called Peptide 11
T6 peptide: SGSGTVDFEAFGWDWIIA
Protocol: as §1

[7] = biological target: T7, myostatin artificial peptide No 37 (SGSGCCTPTKMSPINMLY) (cysteine pairing not given here); assay: as above
T7 construct: also called Peptide 37
T7 peptide: Biotin-SGSGCCTPTKMSPINMLY-NH2
Protocol: as §1

[8] = biological target: T8, myostatin artificial peptide No 43 (SGSGLYFNGKEQIIYGKI) (HELM PEPTIDE1{[O=C1N[C@H]2[C@H](CS[C@H]2CCCCC(=O)[*:2])N1].S.G.S.G.L.Y.F.N.G.K.E.Q.I.I.Y.G.K.I.[am]}$$$$V2.0; SMILES …); assay: as above
T8 construct: also called Peptide 43
T8 peptide: SGSGLYFNGKEQIIYGKI
Protocol: as §1

[9] = biological target: T9, myostatin artificial peptide No 1 (…) (N-terminus H-; C-terminus -NH2); assay: as above
T9 construct: also called Peptide 1
Protocol: as §1

[10] = biological target: T10, myostatin artificial peptide No 33 (SGSGNPRGSAGPCCTPTK) (cysteine pairing not given here); assay: as above
T10 construct: also called Peptide 33
T10 peptide: Biotin-SGSGNPRGSAGPCCTPTK-NH2
Protocol: as §1

[11] = biological target: T11, myostatin artificial peptide No 19 (SGSGRYKANYCSGECEFV) (cysteine pairing not given here); assay: as above
T11 construct: also called Peptide 19
T11 peptide: Biotin-SGSGRYKANYCSGECEFV-NH2
Protocol: as §1

[12] = biological target: T12, myostatin artificial peptide No 35 (SGSGSAGPCCTPTKMSPI) (cysteine pairing not given here); assay: as above
T12 construct: also called Peptide 35
T12 peptide: Biotin-SGSGSAGPCCTPTKMSPI-NH2
Protocol: as §1

[13] = biological target: T13, myostatin artificial peptide No 29 (SGSGHTHLVHQANPRGSA) (HELM PEPTIDE1{[O=C1N[C@H]2[C@H](CS[C@H]2CCCCC(=O)[*:2])N1].S.G.S.G.H.T.H.L.V.H.Q.A.N.P.R.G.S.A.[am]}$$$$V2.0; SMILES …); assay: as above
T13 construct: also called Peptide 29
T13 peptide: SGSGHTHLVHQANPRGSA
Protocol: as §1

[14] = biological target: T14, recombinant mature dimeric myostatin (human and mouse (mature sequences 100% …, UniProt O08689 268-376)); assay: ELISA, myostatin coated at 10 ng/well
T14 construct: also called GDF-8; mature myostatin
T14 sequence: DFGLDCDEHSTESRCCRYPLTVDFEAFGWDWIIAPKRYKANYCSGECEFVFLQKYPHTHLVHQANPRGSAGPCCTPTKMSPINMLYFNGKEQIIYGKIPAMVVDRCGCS
Protocol: 10B3 and 10B3 chimera (10B3C) bound myostatin (R&D Systems, 788-G8-010/CF) in a sandwich ELISA. Plates were coated with myostatin at 10 ng/well and blocked with Block solution (PBS, 0.1% TWEEN and 1% BSA). Following washing (PBS, 0.1% TWEEN), antibody was incubated at 37° C. for 2 hours over a dilution series and plates washed again prior to incubation at 37° C. for 1 hour with anti-mouse HRP or anti-human HRP (Dako, P0161 & Sigma, A-8400, respectively). Plates were again washed and OPD substrate (Sigma, P9187) added until colourometric reaction occurred and the reaction stopped by the addition of H₂SO₄.

B1: mouse monoclonal antibody 10B3 (antibody, mouse IgG2a, V domains shown)
VH: EVQLQQSGPELVKPGASVKISCKASGYSFTGYFMHWVKQSHGNILDWIGNIYPYNGVSNYNQRFKAKATLTVDKSSSTAYMELRSLTSEDSAVYYCARRYYYGTGPADWYFDVWGTGTTVTVSS
VL: DIKMTQSPSSMYASLRERVTITCKASQDINSYLSWFQQKPGKSPKTLIYRANRLVDGVPSRFSGSGSGQDYSLTISSLEYEDMGIYYCLQCDEFPLTFGAGTKLELK
notes: Murine IgG2a/k; also called 10B3 mouse parental; parental 10B3
0.069 µg/mL: EC50 [14]
no binding: binding result [1] | binding result [2] | binding result [3] | binding result [4] | binding result [5] | binding result [6] | binding result [7] | binding result [8] | binding result [9] | binding result [10] | binding result [11] | binding result [12] | binding result [13]

Reference: patent US20130142788A1 (published 2013)
